We go through 137 substances from the supplement of paper PMC12042874.

± gives the uncertainty stated by the source.

One data set is described as follows: amyloid nucleation score (Sup35N fusion, yeast selection) (log enrichment); library NNK3; higher = more nucleation; inactive = no reads after selection. The method, boiled down: (§1)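 Peptides of 20 random codons, each fused to Sup35N, were expressed in psi-negative yeast. Cells were induced with 100 μM copper sulfate for 24 hours and grown 7 days at 30°C on medium lacking adenine and uracil, and plasmid inserts before and after selection were Illumina-sequenced. Nucleation scores are DiMSum log enrichments of output over input reads, centred on the mode score of non-aggregating sequences, and sequences under 100 input reads were excluded.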
FWRSGNFYVNTVVLCASSRE: the amyloid nucleation score turned out to be 2.03 ± 0.099.

In the case of VRHVITSSG, the amyloid nucleation score result is “inactive”.

For the substance VQISIDKAWMRTSTCSIGSK, the amyloid nucleation score result is “inactive”.

As to RLLSAV, the amyloid nucleation score entry was “inactive”.

As for YEYWYFCRDDNNFVYLIR, the amyloid nucleation score result was “inactive”.

With LPAGFKSR, the amyloid nucleation score entry was “inactive”.

As to AVATCP, the amyloid nucleation score result is “inactive”.

Take ITPTFYVARTKPMLTGGCPK: the amyloid nucleation score result is “inactive”.

KVSMYRVVWCPASFGVIIVA: the amyloid nucleation score entry is “inactive”.

YSNRVGNAYMGSLKTSWHVM: the amyloid nucleation score result was “inactive”.

Consider FFETRKYCGKEWFSGMLDMQ, for which the amyloid nucleation score result was “inactive”.

As for YYYGKWYLYEKHSVVFRGCR, the amyloid nucleation score entry is “inactive”.

Consider IVVRPR, for which the amyloid nucleation score was determined as 1.24 ± 0.17.

For AHFISFNRYHVARFINAHRL, the amyloid nucleation score result is “inactive”.

On to FVLMPSSFYNYWTTSEDFRS, for which the amyloid nucleation score result was “inactive”.

In the case of SMQVQMTWLCDRSSLGQRNL, the amyloid nucleation score is 1.61 ± 0.074.

Consider DGILTVCYEVVNWNSSSVLL, for which the amyloid nucleation score entry is “inactive”.

DFGCKSINCFLNATQ: the amyloid nucleation score entry was “inactive”.

FGYNYLCTFSFIISMVHVRF: the amyloid nucleation score entry was “inactive”.

For the substance MYGLLIKNSYRKRLDLSVSI, the amyloid nucleation score entry is “inactive”.

For QIHNRTMPCWRSKATVLGKT, the amyloid nucleation score entry is “inactive”.

On to CDSLHNDAVYTSLGAWANHP, for which the amyloid nucleation score entry was “inactive”.

The nature of a further data set: amyloid nucleation score (Sup35N fusion, yeast selection) (log enrichment); library NNK2; higher = more nucleation; inactive = no reads after selection. The method, boiled down:
as §1
The substance KPSKYPVYLLGVVKVQVDYD gave an amyloid nucleation score of -0.849 ± 1.1.

In turn, LRFSWDKISFVVRWLVVGLT showed an amyloid nucleation score of 0.138 ± 0.19.

As for SYCSL, the amyloid nucleation score turned out to be 0.548 ± 0.38.

Turning to RFYTVSRSRLSGMSMYLCRV, the amyloid nucleation score is -0.294 ± 0.26.

YFSCEFDTYHGEYCCMWQIM came in with an amyloid nucleation score of 0.069 ± 0.8.

Consider SSLTPHWRVRKYDWYSIGSG, for which the amyloid nucleation score is -0.8 ± 0.41.

Take VVTIIRSSVWVSTLCFGFFV: the amyloid nucleation score was found to be 4.01 ± 0.068.

As to FMTFK, the amyloid nucleation score was 3.14 ± 0.13.

Regarding GQTLTRRKVKGRQRELTSGQ, the amyloid nucleation score was found to be 0.967 ± 0.36.

In turn, CEFRDQRFPLVCAGYGRYIG registered an amyloid nucleation score of 0.653 ± 0.57.

In the case of RDLDY, the amyloid nucleation score is -1.27 ± 0.75.

Regarding VFYRASRSFKQSVRAPVGLR, the amyloid nucleation score is -0.675 ± 0.55.

For IYGSYVLDLVGVNLAGKGEN, the amyloid nucleation score is -0.347 ± 1.

On to TINMNIYFIVRVDPSFDNVV, for which the amyloid nucleation score is 6.88 ± 0.064.

Substance LFRVMILC displayed an amyloid nucleation score of -0.239 ± 0.42.

KIRASVNSSRFFWFDAS displayed an amyloid nucleation score of 2.96 ± 0.13.

With NGISYQRMTGNGFVESNGAS, the amyloid nucleation score is 4.683 ± 0.034.

For VMSNFFVLRNGCWPMGRG, the amyloid nucleation score stood at 6.124 ± 0.049.

In turn, IEYRNMLMLSCFNKYMDCLN showed an amyloid nucleation score of 4.45 ± 0.055.

YTDISCVLLGLG came in with an amyloid nucleation score of -1.76 ± 0.78.

For FPIVFTTKCDIFLSYSLLPS, the amyloid nucleation score was 1.7 ± 0.13.

The substance TPLYFRYVTIHYRGHVKVDV came in with an amyloid nucleation score of 0.688 ± 0.81.

The substance NQRHVIPNSIVLWWGELDLF returned an amyloid nucleation score of 0.465 ± 0.8.

RNCTRFPWSIM returned an amyloid nucleation score of 0.131 ± 1.

Take DHRIWKAAREVVLVCHL: the amyloid nucleation score is 0.629 ± 0.4.

Regarding TTTAERSVRPVSCDGFIACG, the amyloid nucleation score was found to be 3.56 ± 0.054.

The substance GEKTVLVYMVG displayed an amyloid nucleation score of 4.9 ± 0.07.

YSVTLGGWIREQSLQLSTSS gave an amyloid nucleation score of 0.768 ± 0.46.

The substance YEVREFSCHGINIKMEGIYC returned an amyloid nucleation score of 1.48 ± 0.2.

In turn, ACVWNDIEGMNTFTVNSFFL came in with an amyloid nucleation score of 3.39 ± 0.16.

As to RKWYGQTSARADVAVS, the amyloid nucleation score was 0.232 ± 0.25.

In turn, WFFRVLCLCRTLWNHYSFF registered an amyloid nucleation score of 0.054 ± 0.79.

Turning to TFRPFQVTSHVSLRDMMGIS, the amyloid nucleation score came to 0.132 ± 0.3.

Consider IIMLYEYHLITGTMNAMHRV, for which the amyloid nucleation score result is “inactive”.

The substance VWILSLAWLLPGYTCPFGPK had an amyloid nucleation score of 4.801 ± 0.042.

In the case of NGLYVAIFSVNLFPPLTKYI, the amyloid nucleation score is 5.422 ± 0.053.

On to WRYIAVNFSNAFNDLVDSCA, for which the amyloid nucleation score was 0.117 ± 0.79.

As for YCERAHALICSLRQVGWVPR, the amyloid nucleation score amounted to 0.719 ± 0.25.

The substance NISGV showed an amyloid nucleation score of -0.644 ± 0.76.

Take HSFLPRGHVADYNKLPVWSV: the amyloid nucleation score is -0.707 ± 0.61.

On to IVTAVITM, for which the amyloid nucleation score entry is “inactive”.

As for RIQDLMVLTEGYRRDVIGPG, the amyloid nucleation score is 0.533 ± 0.56.

Consider NDCRMFRELTYVPHRERC, for which the amyloid nucleation score was determined as 0.708 ± 0.49.

NFMNKMFALTWCCIDKILCG returned an amyloid nucleation score of -1.1 ± 0.78.

With YTTRSVMVSCGYCR, the amyloid nucleation score was -0.29 ± 0.27.

With LTSCGLVWCSIRRPGMKALV, the amyloid nucleation score was -0.077 ± 0.76.

The substance FNDSPSYWFSHYIAARSSVE showed an amyloid nucleation score of -0.37 ± 0.36.

For the substance FKFYGFFD, the amyloid nucleation score result is “inactive”.

For the substance IEGQGLIVCNGDCTGRPNLR, the amyloid nucleation score came out at 1.69 ± 0.39.

SCLLWAF came in with an amyloid nucleation score of -1.54 ± 1.1.

With MAESELQICMFYTMGCWDMV, the amyloid nucleation score was -0.165 ± 0.42.

In turn, AYKNYIPVVSVH showed an amyloid nucleation score of -1.37 ± 1.1.

On to IYRTYYGMNACLINLCMFDN, for which the amyloid nucleation score worked out at 7.734 ± 0.055.

Turning to LIGAATSKNVIRCNGWDGDQ, the amyloid nucleation score worked out at 0.848 ± 0.57.

Turning to CNNCYALYHDGV, the amyloid nucleation score was -0.396 ± 0.39.

The substance PLVLKCRCLI gave an amyloid nucleation score of -1.32 ± 1.1.

LRKWILLLRDYDSLYFCLVA yielded an amyloid nucleation score of -0.996 ± 0.36.

In turn, LKSSWPFDVKKAYKCYVKFA yielded an amyloid nucleation score of 0.006 ± 0.65.

With HRTGWKIFVSW, the amyloid nucleation score is 0.732 ± 0.17.

Substance HQFYHFAEENN showed an amyloid nucleation score of -0.249 ± 1.

Substance RFRCTTSSLRGLFWPNTWKK showed an amyloid nucleation score of -0.301 ± 0.76.

In turn, LVRDHRNRVGFCQMSQ displayed an amyloid nucleation score of 0.248 ± 0.44.

Regarding CCFTGIKGSYCFSWLACG, the amyloid nucleation score was -0.082 ± 0.3.

In the case of CVGGVSNCMRYGKTFRDESY, the amyloid nucleation score is -0.438 ± 0.27.

RVGSFG displayed an amyloid nucleation score of 0.596 ± 0.4.

As for NSKLPAEFLFFQYECMESPR, the amyloid nucleation score was -0.758 ± 0.79.

For the substance FLSVARPTF, the amyloid nucleation score entry was “inactive”.

As to VSNREMYVNR, the amyloid nucleation score worked out at 0.086 ± 0.74.

In turn, ESMLSEFFWDHS came in with an amyloid nucleation score of 3.07 ± 0.072.

For GICPWTRLALFCRSGNVYRG, the amyloid nucleation score amounted to 1.34 ± 0.15.

For DGHVELCISAKDYD, the amyloid nucleation score was -0.249 ± 0.53.

FPARFHACLDYKWFGTGRPS returned an amyloid nucleation score of 2.41 ± 0.12.

TQPPNCQVYKRDDTCYWCGS gave an amyloid nucleation score of -0.509 ± 0.33.

The substance EWTLWSSGLRAES registered an amyloid nucleation score of 0.217 ± 0.3.

With LSYPTVYLATLVYFLQMWAV, the amyloid nucleation score is -0.285 ± 0.37.

As for QMFVRCSQ, the amyloid nucleation score was found to be 0.705 ± 0.66.

The substance MRQSNDWLFFLTNGTKCGEL yielded an amyloid nucleation score of -0.162 ± 0.46.

On to FTVRQTKAAGECSSKQWGTL, for which the amyloid nucleation score is 3.18 ± 0.098.

On to AMWESLP, for which the amyloid nucleation score came out at 1.41 ± 0.25.

For the substance DANLQIH, the amyloid nucleation score is -0.774 ± 0.45.

As to YRWDHILDVGSSFVL, the amyloid nucleation score was found to be 3.61 ± 0.064.

With IGMSHRSQACESFKVKCPTY, the amyloid nucleation score is 1.66 ± 0.2.

For KSRFIFRVSVLDPRASVAWL, the amyloid nucleation score entry is “inactive”.

GWRFL had an amyloid nucleation score of -1.17 ± 0.54.

For FNFIIAQE, the amyloid nucleation score is -1.1 ± 1.1.

GAIRFK returned an amyloid nucleation score of 0.223 ± 0.54.

CVRCTFCIVSVICFSIYLSE: the amyloid nucleation score is -0.448 ± 0.55.

Substance MFWSTSYRNNFWTPIWEKLG gave an amyloid nucleation score of -0.597 ± 0.39.

For the substance NARICDTLVLKLLTVLLENG, the amyloid nucleation score is 3.44 ± 0.12.

In turn, YLSKTLIAVMDFCVLDTG came in with an amyloid nucleation score of -0.971 ± 0.48.

Regarding RNVGDLMSRGSYYSIPSGNL, the amyloid nucleation score is -1.03 ± 0.41.

Regarding CYAIMNGVSFLDLIGGARET, the amyloid nucleation score came to 5.85 ± 0.077.

In the case of MNRPVHSDYVYSFSLEFVVV, the amyloid nucleation score was -0.089 ± 1.1.

Consider KLGKPFARRKFCICNSQWVG, for which the amyloid nucleation score was -0.743 ± 0.31.

Regarding AVIDIIKRTSCTCDESCCIL, the amyloid nucleation score came out at 0.503 ± 0.31.

LFRCELSLGRHMGFLDWEWG gave an amyloid nucleation score of 0.201 ± 0.38.

Substance FIRIVSFMRWHATTSALAIA registered an amyloid nucleation score of 0.106 ± 0.36.

The substance HLCKLSYI returned an amyloid nucleation score of 1.2 ± 0.33.

SVFVYYGFQENSAFSIWLAP gave an amyloid nucleation score of -0.96 ± 0.54.

Substance DLSISSLGFQNIVLSHDNGY showed an amyloid nucleation score of -1.13 ± 1.1.

In turn, MPGMVTSCTVFCNQFKMETC came in with an amyloid nucleation score of 6.457 ± 0.061.

For SILALTE, the amyloid nucleation score is -0.072 ± 1.1.

Regarding MCMLDRRYQTVMSKVWPNLT, the amyloid nucleation score came out at 0.224 ± 0.33.

Substance YLAFSMEHAGCLHHRVSGIM yielded an amyloid nucleation score of 5.46 ± 0.084.

In turn, LAHETLCLDTYRDPW had an amyloid nucleation score of -1.54 ± 1.

For SYTSAYSRYIWRHQIIMGKK, the amyloid nucleation score is -1.11 ± 0.42.

Regarding KTPVGYTRRGSPFTR, the amyloid nucleation score was 1.16 ± 0.33.

NRVLVLAVGHEKFIAKMRLT displayed an amyloid nucleation score of 1.51 ± 0.46.

YPEADALLRFGVMDIHN returned an amyloid nucleation score of 0.085 ± 0.36.

PGYSSNSCERDLLGRASVWL gave an amyloid nucleation score of -0.593 ± 0.74.

SLDETSPLVWEWEICSDLYN yielded an amyloid nucleation score of 0.68 ± 0.56.

ILRECFIFSHRKTHLLKFWL: the amyloid nucleation score is -0.622 ± 1.1.

Substance YGSRVYLRVWKLGCFGQYGE showed an amyloid nucleation score of 1.68 ± 0.27.

VMAILCTNARQLEDSLRQVE came in with an amyloid nucleation score of 0.452 ± 0.43.

Take RSGLSVIYLYY: the amyloid nucleation score entry was “inactive”.
